Reference: the supplement of paper PMC10567573

B1: APBB1IP (parent)
chain: LPLPPPPPEPLSQVSMWDQRWQDH
B2: LOXL2 (parent)
chain: HISSCKLGPQVSLDPMKNVTCENG

Variants of: B1
Assay: protein stability index of a GFP-peptide fusion (GPS, HEK-293T) (PSI 1-6); higher = more stable
Settings: c terminus: a fixed tail appended
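Note: lentivirally expressed fusions sorted by FACS into six bins by GFP to DsRed ratio, PSI derived from sequencing read proportions per bin multiplied by bin number.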

Row | Variant | protein stability index
1 | LPLPWPPPEPLSQVSMWDQRWQDH [P5W] | 3.4
2 | LPLPMPPPEPLSQVSMWDQRWQDH [P5M] | 3.84
3 | LPLPKPPPEPLSQVSMWDQRWQDH [P5K] | 3.28
4 | LPLPPPKPEPLSQVSMWDQRWQDH [P7K] | 3.97
5 | LPLPPPEPEPLSQVSMWDQRWQDH [P7E] | 4.25

Variants of: B2
Assay: as above
Settings: c terminus: a fixed tail appended

Row | Variant | protein stability index
6 | HISSCKLGPQVSLDPMKNCTCENG [V19C] | 3.86
7 | HISSCKLGPQVSLDPMKNGTCENG [V19G] | 4.15
8 | HISSCKLGPQVSLDPMKNETCENG [V19E] | 4.44
9 | HISSCKLGPQVSLDPMKNTTCENG [V19T] | 3.71
10 | HISSCKLGPQVSLDPMKNITCENG [V19I] | 3.59
11 | HISSCKLGPQVSLDPMKNNTCENG [V19N] | 4.57
12 | HISSCKLGPQVSLDPMKNPTCENG [V19P] | 4.2
13 | HISSCKLGPQVSLDPMKNKTCENG [V19K] | 4.13
14 | HISSCKLGPQVSLDPMKNATCENG [V19A] | 4.32
15 | HISSCKLGPQVSLDPMKNSTCENG [V19S] | 4.38
16 | HISSCKLGPQVSLDPMKNDTCENG [V19D] | 4.67
17 | HISSCKLGPQVSLDPMKNHTCENG [V19H] | 3.89
18 | HISSCKLGPQVSLDPMKNWTCENG [V19W] | 2.99
19 | HISSCKLGPQVSLDPMKNRTCENG [V19R] | 4.26
20 | HISSCKLGPQVSLDPMKNLTCENG [V19L] | 3.77
21 | HISSCKLGPQVSLDPMKNMTCENG [V19M] | 3.55
22 | HISSCKLGPQVSLDPMKNFTCENG [V19F] | 2.95
23 | HISSCKLGPQVSLDPMKNQTCENG [V19Q] | 4.08
24 | HISSCKLGPQVSLDPMKNYTCENG [V19Y] | 3.76
25 | HISSCKLGPQVSLDPMPNVTCENG [K17P] | 4.01
26 | HISSCKLGPQVSLDPMVNVTCENG [K17V] | 3.67
27 | HISSCKLGPQVSLDPMINVTCENG [K17I] | 3.3
28 | HISSCKLGPQVSLDPMFNVTCENG [K17F] | 2.97

Row | Variant | protein stability index
29 | HISSCKLGPQVSLDPMTNVTCENG [K17T] | 4.19
30 | HISSCKLGPQVSLDPMLNVTCENG [K17L] | 3.77
31 | HISSCKLGPQVSLDPMNNVTCENG [K17N] | 4.3
32 | HISSCKLGPQVSLDPMHNVTCENG [K17H] | 4.03
33 | HISSCKLGPQVSLDPMSNVTCENG [K17S] | 4.02
34 | HISSCKLGPQVSLDPMQNVTCENG [K17Q] | 3.81
35 | HISSCKLGPQVSLDPMGNVTCENG [K17G] | 3.45
36 | HISSCKLGPQVSLDPMRNVTCENG [K17R] | 3.55
37 | HISSCKLGPQVSLDPMWNVTCENG [K17W] | 3.05
38 | HISSCKLGPQVSLDPMYNVTCENG [K17Y] | 3.44
39 | HISSCKLGPQVSLDPMMNVTCENG [K17M] | 3.22
40 | HISSCKLGPQVSLDPMKNVTHENG [C21H] | 4.03
41 | HISSCKLGPQVSLDPMKNVTFENG [C21F] | 3.65
42 | HISSCKLGPQVSLDPMKNVTAENG [C21A] | 4.41
43 | HISSCKLGPQVSLDPMKNVTTENG [C21T] | 4.08
44 | HISSCKLGPQVSLDPMKNVTDENG [C21D] | 4.79
45 | HISSCKLGPQVSLDPMKNVTNENG [C21N] | 4.14
46 | HISSCKLGPQVSLDPMKNVTPENG [C21P] | 4.17
47 | HISSCKLGPQVSLDPMKNVTYENG [C21Y] | 3.36
48 | HISSCKLGPQVSLDPMKNVTLENG [C21L] | 3.88
49 | HISSCKLGPQVSLDPMKNVTRENG [C21R] | 3.94
50 | HISSCKLGPQVSLDPMKNVTQENG [C21Q] | 3.86
51 | HISSCKLGPQVSLDPMKNVTWENG [C21W] | 3.75

Row | Variant | protein stability index
52 | HISSCKLGPQVSLDPMKNVTKENG [C21K] | 4.06
53 | HISSCKLGPQVSLDPMKNVTSENG [C21S] | 4.63
54 | HISSCKLGPQVSLDPMKNVTMENG [C21M] | 3.61
55 | HISSCKLGPQVSLDPMKNVTGENG [C21G] | 4.05
56 | HISSCKLGPQVSLDPMKNVTIENG [C21I] | 3.53
57 | HISSCKLGPQVSLDPMKNVTVENG [C21V] | 4.1
58 | HISSCKLGPQVSLDPMKNVTEENG [C21E] | 4.92
59 | HISSCKLGPQVSLDPMKNVTCWNG [E22W] | 2.09
60 | HISSCKLGPQVSLDPMKNVTCING [E22I] | 2.92
61 | HISSCKLGPQVSLDPMKNVTCKNG [E22K] | 3.89
62 | HISSCKLGPQVSLDPMKNVTCDNG [E22D] | 3.82
63 | HISSCKLGPQVSLDPMKNVTCMNG [E22M] | 2.9
64 | HISSCKLGPQVSLDPMKNVTCFNG [E22F] | 2.46
65 | HISSCKLGPQVSLDPMKNVTCHNG [E22H] | 3.18
66 | HISSCKLGPQVSLDPMKNVTCQNG [E22Q] | 3.47
67 | HISSCKLGPQVSLDPMKNVTCNNG [E22N] | 3.35
68 | HISSCKLGPQVSLDPMKNVTCYNG [E22Y] | 2.44
69 | HISSCKLGPQVSLDPMKNVTCANG [E22A] | 3.51
70 | HISSCKLGPQVSLDPMKNVTCRNG [E22R] | 3.5
71 | HISSCKLGPQVSLDPMKNVTCGNG [E22G] | 3.17
72 | HISSCKLGPQVSLDPMKNVTCCNG [E22C] | 3.22
73 | HISSCKLGPQVSLDPMKNVTCVNG [E22V] | 3
74 | HISSCKLGPQVSLDPMKNVTCTNG [E22T] | 3.23

Row | Variant | protein stability index
75 | HISSCKLGPQVSLDPMKNVTCLNG [E22L] | 2.58
76 | HISSCKLGPQVSLDPMKNVTCSNG [E22S] | 3.5
77 | HISSCKLGPQVSLDPMKNVTCPNG [E22P] | 3.47
78 | HISSCKLGPQVSLDPMKNVTCENK [G24K] | 3.82
79 | HISSCKLGPQVSLDPMKNVTCENM [G24M] | 3.52
80 | HISSCKLGPQVSLDPMKNVTCENP [G24P] | 3.79
81 | HISSCKLGPQVSLDPMKNVTCENQ [G24Q] | 4
82 | HISSCKLGPQVSLDPMKNVTCENR [G24R] | 3.58
83 | HISSCKLGPQVSLDPMKNVTCENT [G24T] | 4.05
84 | HISSCKLGPQVSLDPMKNVTCENA [G24A] | 3.65
85 | HISSCKLGPQVSLDPMKNVTCENH [G24H] | 3.94
86 | HISSCKLGPQVSLDPMKNVTCENC [G24C] | 3.37
87 | HISSCKLGPQVSLDPMKNVTCENW [G24W] | 2.93
88 | HISSCKLGPQVSLDPMKNVTCENI [G24I] | 3.39
89 | HISSCKLGPQVSLDPMKNVTCEND [G24D] | 4.01
90 | HISSCKLGPQVSLDPMKNVTCENF [G24F] | 3.34
91 | HISSCKLGPQVSLDPMKNVTCENS [G24S] | 4.25
92 | HISSCKLGPQVSLDPMKNVTCENN [G24N] | 4.12
93 | HISSCKLGPQVSLDPMKNVTCENV [G24V] | 3.67
94 | HISSCKLGPQVSLDPMKNVTCENY [G24Y] | 3.29
